In PMC8533776 one finds EC50 data, which are given here for 1 substance.

In this assay the target is enhanced green fluorescent protein (EGFP) [GFP: P42212]. The assay is described as follows: ELISA; EGFP coated at 100 ng/well in PBS overnight at 4 °C, blocked with 3% BSA; threefold serial dilutions of the binders, 37 °C for 1.5 h; detection by HRP-conjugated anti-Flag antibody, ABTS, OD405. Background: An ELISA detects its analyte on a solid surface through an enzyme-linked reagent.

As to αEGFP TRIMbody (RBCC-LaG16-LaG2), the EC50 was 0.63 nM.

In general, EC50 refers to the concentration giving half of the maximal effect.
